Measurements taken from PMC11046454.

Tests used:
[1] = system: anti-FITC CAR (E2 scFv, CD8a hinge/TM, 4-1BB, CD3zeta) on CAR-J Jurkat or CAR-T cells (synthetic construct); experiment: flow cytometry, CAR-T cells; settings: via FITC; Cells 1e6/mL in DPBS, 1% FBS, 5 mM MgCl2, 4 C, 30 min; flow cytometry (pH 6.5 or 7.4 for i-motif; 1 mM ATP where stated)
[2] = system: anti-FITC CAR (E2 scFv, CD8a hinge/TM, 4-1BB, CD3zeta) on CAR-J Jurkat or CAR-T cells (synthetic construct); experiment: flow cytometry, CAR-J cells; settings: via FITC; Cells 1e6/mL in DPBS, 1% FBS, 5 mM MgCl2, 4 C, 30 min; flow cytometry (pH 6.5 or 7.4 for i-motif; 1 mM ATP where stated)

Sequence | binding signal (fold vs ssDNA) [1] | Kd [2] [nM]
ACATTCCTAAGTCTGAAACATTACAGCTTGCTACACGAGAAGAGCCGCCATAGTA / TTTATCACCAGGCAGTTGACAGTGTAGCAAGCTGTAATAGATGCGAGGGTCCAATAC / TTTCAACTGCCTGGTGATAAAACGACACTACGTGGGAATCTACTATGGCGGCTCTTC / TTTTCAGACTTAGGAATGTGCTTCCCACGTAGTGTCGTTTGTATTGGACCCTCGCAT [FITC-TDN-Cy5] | 3 | –
TTTTTTTTTTTTTTTTTTTTTTTTTTTTTTTTTTTTTTTT [FITC-DNA-Cy5] | – | 26.4
